Positions count from the first letter of the chain named. In names and notes the source's numbering stands.
B1: CtIP ΔC608 (domain or fragment, human, UniProt Q99708 1-608, looked up)
chain: MNISGSSCGSPNSADTSSDFKDLWTKLKECHDREVQGLQVKVTKLKQERILDAQRLEEFFTKNQQLREQQKVLHETIKVLEDRLRAGLCDRCAVTEEHMRKKQQEFENIRQQNLKLITELMNERNTLQEENKKLSEQLQQKIENDQQHQAAELECEEDVIPDSPITAFSFSGVNRLRRKENPHVRYIEQTHTKLEHSVCANEMRKVSKSSTHPQHNPNENEILVADTYDQSQSPMAKAHGTSSYTPDKSSFNLATVVAETLGLGVQEESETQGPMSPLGDELYHCLEGNHKKQPFEESTRNTEDSLRFSDSTSKTPPQEELPTRVSSPVFGATSSIKSGLDLNTSLSPSLLQPGKKKHLKTLPFSNTCISRLEKTRSKSEDSALFTHHSLGSEVNKIIIQSSNKQILINKNISESLGEQNRTEYGKDSNTDKHLEPLKSLGGRTSKRKKTEEESEHEVSCPQASFDKENAFPFPMDNQFSMNGDCVMDKPLDLSDRFSAIQRQEKSQGSETSKNKFRQVTLYEALKTIPKGFSSSRKASDGNCTLPKDSPGEPCSQECIILQPLNKCSPDNKPSLQIKEENAVFKIPLRPRESLETENVLDDIKSAGS
notes: designed to be equivalent to the deletion of Jawad syndrome; also called ΔC608 CtIP; Jawad variant
B2: CtIP ΔC782 (domain or fragment, human, UniProt Q99708 1-782, looked up)
chain: MNISGSSCGSPNSADTSSDFKDLWTKLKECHDREVQGLQVKVTKLKQERILDAQRLEEFFTKNQQLREQQKVLHETIKVLEDRLRAGLCDRCAVTEEHMRKKQQEFENIRQQNLKLITELMNERNTLQEENKKLSEQLQQKIENDQQHQAAELECEEDVIPDSPITAFSFSGVNRLRRKENPHVRYIEQTHTKLEHSVCANEMRKVSKSSTHPQHNPNENEILVADTYDQSQSPMAKAHGTSSYTPDKSSFNLATVVAETLGLGVQEESETQGPMSPLGDELYHCLEGNHKKQPFEESTRNTEDSLRFSDSTSKTPPQEELPTRVSSPVFGATSSIKSGLDLNTSLSPSLLQPGKKKHLKTLPFSNTCISRLEKTRSKSEDSALFTHHSLGSEVNKIIIQSSNKQILINKNISESLGEQNRTEYGKDSNTDKHLEPLKSLGGRTSKRKKTEEESEHEVSCPQASFDKENAFPFPMDNQFSMNGDCVMDKPLDLSDRFSAIQRQEKSQGSETSKNKFRQVTLYEALKTIPKGFSSSRKASDGNCTLPKDSPGEPCSQECIILQPLNKCSPDNKPSLQIKEENAVFKIPLRPRESLETENVLDDIKSAGSHEPIKIQTRSDHGGCELASVLQLNPCRTGKIKSLQNNQDVSFENIQWSIDPGADLSQYKMDVTVIDTKDGSQSKLGGETVDMDCTLVSETVLLKMKKQEQKGEKSSNEERKMNDSLEDMFDRTTHEEYESCLADSFSQAADEEEELSTATKKLHTHGDKQDKVKQKAFVEPYFK
notes: designed to be equivalent to the deletion of Seckel-2 syndrome; also called ΔC782 CtIP; Seckel-2 variant
B3: CtIP ΔN500 (domain or fragment, human, UniProt Q99708 500-897, looked up)
chain: IQRQEKSQGSETSKNKFRQVTLYEALKTIPKGFSSSRKASDGNCTLPKDSPGEPCSQECIILQPLNKCSPDNKPSLQIKEENAVFKIPLRPRESLETENVLDDIKSAGSHEPIKIQTRSDHGGCELASVLQLNPCRTGKIKSLQNNQDVSFENIQWSIDPGADLSQYKMDVTVIDTKDGSQSKLGGETVDMDCTLVSETVLLKMKKQEQKGEKSSNEERKMNDSLEDMFDRTTHEEYESCLADSFSQAADEEEELSTATKKLHTHGDKQDKVKQKAFVEPYFKGDERETSLQNFPHIEVVRKKEERRKLLGHTCKECEIYYADMPAEEREKKLASCSRHRFRYIPPNTPENFWEVGFPSTQTCMERGYIKEDLDPCPRPKRRQPYNAIFSPKGKEQKT
notes: CtIP, human, the first 499 amino acids removed (begins at residue 500); a and b are two SEC fractions (dimer and monomer peaks) of the same preparation; also called ΔN500a; ΔN500b; source: High-Five insect cells (baculovirus), purified (StrepTactin, MonoQ, Superose 6 SEC); not shown: StrepII, C-terminal, kept
B4: CtIP ΔN541 (domain or fragment, human, UniProt Q99708 541-897, looked up)
chain: GNCTLPKDSPGEPCSQECIILQPLNKCSPDNKPSLQIKEENAVFKIPLRPRESLETENVLDDIKSAGSHEPIKIQTRSDHGGCELASVLQLNPCRTGKIKSLQNNQDVSFENIQWSIDPGADLSQYKMDVTVIDTKDGSQSKLGGETVDMDCTLVSETVLLKMKKQEQKGEKSSNEERKMNDSLEDMFDRTTHEEYESCLADSFSQAADEEEELSTATKKLHTHGDKQDKVKQKAFVEPYFKGDERETSLQNFPHIEVVRKKEERRKLLGHTCKECEIYYADMPAEEREKKLASCSRHRFRYIPPNTPENFWEVGFPSTQTCMERGYIKEDLDPCPRPKRRQPYNAIFSPKGKEQKT
notes: CtIP, human, the first 540 amino acids removed (begins at residue 541); a and b are two SEC fractions (dimer and monomer peaks) of the same preparation; No tag cleavage is described in its purification; also called ΔN541a; ΔN541b; source: High-Five insect cells (baculovirus), purified (StrepTactin, MonoQ, Superose 6 SEC)
B5: CtIP-R100W (natural protein, human, UniProt Q99708 1-897, looked up)
chain: MNISGSSCGSPNSADTSSDFKDLWTKLKECHDREVQGLQVKVTKLKQERILDAQRLEEFFTKNQQLREQQKVLHETIKVLEDRLRAGLCDRCAVTEEHMWKKQQEFENIRQQNLKLITELMNERNTLQEENKKLSEQLQQKIENDQQHQAAELECEEDVIPDSPITAFSFSGVNRLRRKENPHVRYIEQTHTKLEHSVCANEMRKVSKSSTHPQHNPNENEILVADTYDQSQSPMAKAHGTSSYTPDKSSFNLATVVAETLGLGVQEESETQGPMSPLGDELYHCLEGNHKKQPFEESTRNTEDSLRFSDSTSKTPPQEELPTRVSSPVFGATSSIKSGLDLNTSLSPSLLQPGKKKHLKTLPFSNTCISRLEKTRSKSEDSALFTHHSLGSEVNKIIIQSSNKQILINKNISESLGEQNRTEYGKDSNTDKHLEPLKSLGGRTSKRKKTEEESEHEVSCPQASFDKENAFPFPMDNQFSMNGDCVMDKPLDLSDRFSAIQRQEKSQGSETSKNKFRQVTLYEALKTIPKGFSSSRKASDGNCTLPKDSPGEPCSQECIILQPLNKCSPDNKPSLQIKEENAVFKIPLRPRESLETENVLDDIKSAGSHEPIKIQTRSDHGGCELASVLQLNPCRTGKIKSLQNNQDVSFENIQWSIDPGADLSQYKMDVTVIDTKDGSQSKLGGETVDMDCTLVSETVLLKMKKQEQKGEKSSNEERKMNDSLEDMFDRTTHEEYESCLADSFSQAADEEEELSTATKKLHTHGDKQDKVKQKAFVEPYFKGDERETSLQNFPHIEVVRKKEERRKLLGHTCKECEIYYADMPAEEREKKLASCSRHRFRYIPPNTPENFWEVGFPSTQTCMERGYIKEDLDPCPRPKRRQPYNAIFSPKGKEQKT
notes: CtIP, human, with the point mutation R100W that is associated with Seckel-like disease and early onset breast cancer; Expected tetramer mass is printed as 404 kDa, as for the wild type; also called R100W CtIP; source: insect cells (baculovirus, pACEBac1), purified
B6: Wild type CtIP (natural protein, human, UniProt Q99708 1-897, looked up)
chain: B5 chain with W100R
notes: CtIP, human DNA repair factor, wild type, full length; the tag was probably cleaved from the wild type too; also called WT-CtIP; CtIP-WT
B7: CtIP-L27E (natural protein, human, UniProt Q99708 1-897, looked up)
chain: B5 chain with L27E, W100R
notes: CtIP, human, with the point mutation L27E in the N-terminal tetramerisation interface; Probably made like the wild type (insect cells, StrepII tag)

Target: the molecule itself
Test: SEC-MALS; Superose 6 10/300; samples of 0.5–1 mg/ml injected; 20 mM Tris–Cl pH 8.0, 200 mM NaCl, 0.5 mM TCEP

Point of comparison: B4, “stoichiometry N” value 2. Against it:
- B1 — higher, 4
- B2 — higher, 4
- B3 — the same, 2
- B5 — higher, 4
- B6 — higher, 4

Target: the molecule itself
Test: native gel or EMSA; native blue PAGE of purified CtIP proteins, compared with the wild type (tetramer) and CtIP-L27E (dimer) reference proteins

B7: binds.

Source: publication PMC11317151, “DNA binding and bridging by human CtIP in the healthy and diseased states” (Nucleic Acids Research, 2023)
